Changes are numbered by the printed parent chain.
T1: Recombinant human CXCL1 (human, UniProt P09341 35-107)
T1 sequence: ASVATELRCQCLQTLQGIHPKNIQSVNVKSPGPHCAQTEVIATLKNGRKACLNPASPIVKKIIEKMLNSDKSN

T2: Recombinant human CXCL2 (human, UniProt P19875 35-107)
T2 sequence: T1 sequence with S2P, V3L, P20L, N27K, R48Q, I58M, N68K, S69N, D70G

T3: Recombinant human CXCL3 (human, UniProt P19876 35-107)
T3 sequence: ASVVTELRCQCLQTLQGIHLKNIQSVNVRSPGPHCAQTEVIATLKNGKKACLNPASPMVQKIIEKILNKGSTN

B1: C-X-C chemokine receptor 2 (CXCR2), FLAG-tagged, purified from Sf9 cells (receptor)
chain: ANFTPVNGSSGNQSVRLVTSSSMEDFNMESDSFEDFWKGEDLSNYSYSSTLPPFLLDAAPCEPESLEINKYFVVIIYALVFLLSLLGNSLVMLVILYSRVGRSVTDVYLLNLALADLLFALTLPIWAASKVNGWIFGTFLCKVVSLLKEVNFYSGILLLACISVDRYLAIVHATRTLTQKRYLVKFICLSIWGLSLLLALPVLLFRRTVYSSNVSPACYEDMGNNTANWRMLLRILPQSFGFIVPLLIMLFCYGFTLRTLFKAHMGQKHRAMRVIFAVVLIFLLCWLPYNLVLLADTLMRTQVIQETCERRNHIDRALDATEILGILHSCLNPLIYAFIGQKFRHGLLKILAIHGLISKDSLPKDSRPSFVGSSSGHTSTTL

Assays:
Experiment in all cases: cryo-EM structure
[1] = molecular target: Recombinant human CXCL5 (human)
Recombinant human CXCL1 = molecular target: T1, Recombinant human CXCL1
Recombinant human CXCL2 = molecular target: T2, Recombinant human CXCL2
Recombinant human CXCL3 = molecular target: T3, Recombinant human CXCL3

| Molecule | stoichiometry N [1] | binding result (Recombinant human CXCL1) | binding result (Recombinant human CXCL2) | binding result (Recombinant human CXCL3) |
| --- | --- | --- | --- | --- |
| Recombinant human CXCL5 (ligand) | 2 | – | – | – |
| B1 | – | binds | binds | binds |
